Source: WO2018135651A1 (dated 2018)

Target: T1, Human survivin (1-142 aa, N-terminal calmodulin tag, recombinant, #SUR0801, ATGen Co., Ltd.) (human, UniProt O15392 1-142)
T1 construct: range 1-142; Bought recombinant protein, used in solution at 100, 10 and 1 ng/mL; also called antigen; not shown: N-terminal calmodulin tag of the bought product
Experiment: sandwich ELISA; VHH-STM complex adsorbed to the plate as capture, survivin in solution, detection with rabbit anti-survivin polyclonal antibody

T1 sequence (O15392 whole entry, the tested form may be a part): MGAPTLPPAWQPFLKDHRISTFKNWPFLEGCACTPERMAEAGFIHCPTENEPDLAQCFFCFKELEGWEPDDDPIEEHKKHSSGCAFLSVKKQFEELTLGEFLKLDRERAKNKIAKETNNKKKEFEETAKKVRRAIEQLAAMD

B1: VHH-STM complex (antibody complex consisting of an anti-human survivin VHH antibody and a stefin A mutant) (VHH)
VHH: EVQLVESGGGSVQAGGSLRLSCAASGVSNTDMIMIWFRQAPGKEREGVLAAIYKNSTYYADSVKGRFTISQDNAKNTVYLQMNSLKPEDTAIYYCAAIRAVIGRHIRPHIYWGQGTQVTVSS
notes: Single-chain fusion: anti-human survivin VHH, linker, stefin A mutant (STM), His tag, C-terminal Cys; Secreted from Brevibacillus choshinensis and Ni-NTA purified; Adsorbed directly to the plate as capture reagent; also called VHH-STM conjugate; VHH antibody-STM conjugate
**Q.** Does B1 bind?
**A.** binds
